Assays:
[1] = molecular target: T1, HLA-B*0702 molecule on HLA-B*0702 transfected TAP deficient T2 cells (T2-B7) (human); assay: MHC stabilization assay on T2-B7 cells, flow cytometry with ME.1; ratio of concentration giving 20% of maximal binding against reference peptide R10TV
T1 construct: MHC class I molecule without a defined peptide, on the surface of T2-B7 cells; its surface level was read with the anti-HLA-B7 mAb ME.1 by flow cytometry; also called HLA-B7
Description: The relative avidity of hTERT derived peptides for HLA-*B0702 was measured by using a MHC stabilization assay on HLAB0702 transfected T2 (T2-B7) cells in comparison with a reference peptide (R10TV) as described (Rohrlich et al. Int Immunol 2003; 15:765-72). Briefly, T2-B7 were incubated overnight at 2×10⁵ cells/well in 96-well plates in serum free medium AIM-V (Invitrogen Corp., Gibco), supplemented with 100 ng/ml of human β2-microglobulin, in the absence (negative control) or in the presence of either reference peptide […] or hTERT peptides at various final concentrations (100, 10, 1 and 0.1 μM). T2-B7 cells were labelled with a saturating concentration of ME.1 an anti-HLA-B7 mAb, then washed twice and finally stained with FITC-conjugated F(ab′)2 goat anti-mouse Ig before flow cytometry.

[2] = molecular target: T1, HLA-B*0702 molecule on HLA-B*0702 …; assay: MHC stabilization assay on T2-B7 cells, ME-1 staining; ratio of concentration inducing 20% of HLA-B*0702 expression against reference peptide CMV265-274
Source text: The protocol used has been described previously (Rohrlich et al., 2003).

Row | relative avidity [1] [ratio] | RA (relative affinity) [2] [ratio] | Binder
1 | 0.4 | – | MPRAPRCRA (Synthetic peptide, minimum purity 80%) [hTERT peptide p1 (MPRAPRCRA, residues 1-9)]
2 | 0.3 | – | APRCRAVRSL (Synthetic peptide, minimum purity 80%) [hTERT peptide p4 (APRCRAVRSL, residues 4-13)]
3 | – | 1.4 | APRRLVQLL (Synthetic peptide (Epytop); also called optimized p444*) [hTERT peptide analogue p444* (APRRLVQLL)]
4 | 1.5 | – | RPSLTGARRL (Synthetic peptide, minimum purity 80%) [hTERT peptide p351 (RPSLTGARRL, residues 351-360)]
5 | 0.4 | – | APSFRQVSCL (Synthetic peptide, minimum purity 80%) [hTERT peptide p68 (APSFRQVSCL, residues 68-77)]

— patent US20090175892A1 (INSTITUT PASTEUR, published 2009)
